Data: US20240075137A1 (COMPUGEN, published 2024)
Where two headings read alike, the source gives them in different places.

T1: cynomolgus PVRIG on cells (cynomolgus, UniProt A0A2K5WVV8 41-322)
T1 construct: whole, on cells; also called cPVRIG; expi cPVRIG cells
T1 sequence: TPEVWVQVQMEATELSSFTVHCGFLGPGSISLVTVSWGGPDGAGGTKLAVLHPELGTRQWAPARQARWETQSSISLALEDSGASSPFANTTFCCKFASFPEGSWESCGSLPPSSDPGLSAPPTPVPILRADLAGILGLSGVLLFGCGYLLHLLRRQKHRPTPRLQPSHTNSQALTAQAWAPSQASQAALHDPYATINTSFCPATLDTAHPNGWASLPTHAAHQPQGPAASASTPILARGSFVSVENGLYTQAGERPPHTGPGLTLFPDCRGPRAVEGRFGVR

T2: human PVRIG on cells (human, UniProt Q6DKI7 1-326)
T2 construct: whole, on cells; over-expressed on HEK cells or endogenous on Jurkat and CD8 T cells; also called hPVRIG; HEK hPVRIG cells
T2 sequence (looked up): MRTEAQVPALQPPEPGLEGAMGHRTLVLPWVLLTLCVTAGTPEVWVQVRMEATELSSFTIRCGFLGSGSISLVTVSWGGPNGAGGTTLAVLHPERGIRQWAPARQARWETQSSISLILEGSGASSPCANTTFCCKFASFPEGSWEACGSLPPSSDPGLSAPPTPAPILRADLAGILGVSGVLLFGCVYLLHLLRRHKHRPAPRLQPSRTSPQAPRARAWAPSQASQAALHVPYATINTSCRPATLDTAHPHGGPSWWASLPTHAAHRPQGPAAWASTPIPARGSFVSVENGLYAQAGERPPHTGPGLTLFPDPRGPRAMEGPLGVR

T3: PVRIG (FACS-based competition assay of FIGS. 7 and 15) (Homo sapiens, UniProt Q6DKI7)
T3 construct: made because the format of the assay is only described in U.S. Ser. No. 15/048,967; also called human PVRIG
T3 sequence (receptor, looked up): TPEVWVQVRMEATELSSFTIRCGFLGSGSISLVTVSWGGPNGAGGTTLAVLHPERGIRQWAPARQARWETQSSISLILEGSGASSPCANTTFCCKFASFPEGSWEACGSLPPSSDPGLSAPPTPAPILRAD

T4: human TIGIT on cells (human, UniProt Q495A1 22-141)
T4 construct: also called Expi293 human TIGIT over-expressing cells
T4 sequence: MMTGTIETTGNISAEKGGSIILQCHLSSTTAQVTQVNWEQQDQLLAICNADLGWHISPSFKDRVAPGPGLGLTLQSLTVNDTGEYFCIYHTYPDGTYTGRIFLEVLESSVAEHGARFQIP

B1: CHA.7.502 (antibody, V domains shown)
VH: DVQLVESGGDLVQPGGSRKLSCTASGFTFSNFGMHWVRQAPEKGLEWVAYISSGSSTIYYADTVKGRFTISRDNPENTLFLQMTSLRSEDTAMYYCTRLDYYTNSYSMDHWGQGTSVTVSS
VL: QIVLTQSPALMSASPGEKVTLTCSASSSLPYIYWYQQKPGSSPKPWIYLTSNLASGVPARFSGSRSGTSYSLTISSVEAEDAATYYCQQWSSNPFTFGSGTKLEIK
B2: CHA.7.508 (antibody, V domains shown)
VH: EVQLQQSGPDLVKPGASMKISCKASGYTFIDYNIHWVKQSQGKSLDWIGYIYPYNGGTGYNQKFKNKATLTVDSSSSTAYMEVRSLTFEDSAVYFCAREADYYGNRGQFDYWGQGTLVTVSA
VL: DIQMTQSPASLSVSVGETVTITCRASENIFSNLAWYQQKQGKSPQLLVYGEANLADGVPSRFSGSGSGTQYSLKINSLQSEDFGNYYCQHFWGTPYTFGGGTTLEIK
B3: CHA.7.526 (antibody, V domains shown)
VH: QVQLKESGPGLVAPSQSLSITCTVSGFSLTAYNINWVRQPPGKGLEWLGMIWGDGNTDYNSPLKSRLTISKDNSKSQVFLKMDSLQTDDTARYYCARDLKVRRDSPYTMDYWGQGTSVTVSS
VL: NIMMTQSPSSLAVSAGEKVTMSCKSSQSVLYSSNQKNYLAWYQQKPGQSPKLLIYWASNRESGVPDRFTGSGSGTDFTLTISSVQAEDLAVYYCHQYLSSYTFGGGTKLEIK
B4: CHA.7.534 (antibody, V domains shown)
VH: EVQLQQSGAELVKPGASVRLSCTASGFSIRDTYIHWVKQRPEQGLDWIGKIDPANGKSEYDPKFQGRATMTTDTSSNTAYLQLSSLTSEDTAVYYCTRYGYYPYFDVWGAGTTVTVFS
VL: SIVMTQTPKFLLVSAGDRVAITCKASQSVRHDVVWYQQKPGQSPKLLIYYASSRYTGVPDRFTGSGYGTDFTFTISTVQAEDLALYFCLQDFSSPWTFGGGTKLEIK
B5: CHA.7.535 (antibody, V domains shown)
VH: EVQLQQSGPELVKPGASVKISCKTSGYTFTKNTMHWVRQSHGKSLEWIGGINPNSGGASFNQKFMGKATLTVDKSSSTAYMELRSLTSEDSAVYYCARDGYDGDWFFDVWGAGTTVTVSS
VL: DIQMNQSPFSLSASLGDTVTITCHASQNIYVWLSWYQQKPGNIPKLLIYKASDLHTGVPSRFSGSGSGTDFTLNISSLQPEDIATYYCQQGQSYPRTFGGGTKLEIK
B6: CHA.7.506 (antibody, V domains shown)
VH: QVQLQQSGAELTRPGASVNLSCKASGYTFTSYWMQWVKQRPGQGLEWIGAIYPGDGDTRFNQKFKGKATLTADESSSTAYMQLSSLASEDSAVYYCATYYRYDDYWGQGTTLTVSS
VL: QIVLTQSPAIMSASPGEKVTMTCSASSSVSYMHWYQQKSGTSPKRWIYDTSKLASGVPTRFSGSGSGTSYSLTISSMEAEDAATYYCQQWSSNPYTFGGGTKLEIK
B7: CHA.7.503 (antibody, V domains shown)
VH: QVQLQQSGAELAKPGASVKMSCKASGYTFTSNWMHWVKQRPGQGLEWIGYINPSNGYTECNQKFRDKATLSADKSSSTAYMQLNSLTSADSAVYYCALMISAWLPYWGQGTLVTVSA
VL: DIVLTQSPASLAISLGQRATISCRASQSVSASSYSYVHWYQQKPGQPPKLLIKYASSLESGVPARFSGSGSGTDFTLNIHPVEEEDTATYYCLHTWEIPYTFGGGTKLEIK
B8: CPA.9.018 (Fab, V domains shown)
VH: QVQLVESGGGLVQPGGSLRLSCAASGFTFSSYGMHWVRQAPGKGLEWVAFIRYDGSNKYYADSVKGRFTISRDNSKNTLYLQMNSLRAEDTAVYYCAKEMLVQDYYYMDVWGQGTTVTVSS
VL: DVVMTQSPLSLPVSPGEPASISCRSSQNLLHRNGINYLNWYLQKPGQSPQLLIYWGSNRASGVPDRFSGSGSGTDFTLKISRVEAEDVGVYYCMQGLQIPPTFGQGTKVDIK
notes: phage fab, campaign 1; fab form of CPA.9.018-H4; also called CPA.9.018 (fab)
B9: CPA.9.057 (Fab, V domains shown)
VH: QVQLQESGPGLVKPSETLSLTCTVSGGSISSSSYYWGWIRQPPGKGLEWIGSIYYSGSTYYNPSLKSRVTISVDTSKNQFSLKLSSVTAADTAVYYCARQGAAAGNPFDIWGQGTMVTVSS
VL: QSVLTQPPSVSGTPGQRVTISCSGSSSNIGSNFVYWHQQLTGTAPKLLIYRNTQRPSGVPDRFSGSKSGTSASLAIGGLRSEDEADYYCATWDDSLSAWVFGGGTKLTVL
notes: phage fab, campaign 2; fab form of CPA.9.057-H4; also called CPA.9.057 (fab)
B10: CPA.9.059 (Fab, V domains shown)
VH: EVQLVETGGGLIQPGGSLRLSCAASGFTVSSNYMSWVRQAPGKGLEWVSVIYSGGSTYYADSVKGRFTISRDNSKNTLYLQMNSLRAEDTAVYYCARGARYSYGQYPYWGQGTLVTVSS
VL: DIQLTQSPSFLSASVGDRVTITCRASHDISSLFSWYQQKPGKAPKLLIYAASTLQTGVPSRFSGSASGTEFTLTISSLQPEDFATYYCLQLDSFPTWTFGQGTKVEIK
notes: phage fab, campaign 2; fab form of CPA.9.059 hIgG4 (m73); also called CPA.9.059 (fab)

Columns and labels:
[1] = biological target: T1, cynomolgus PVRIG on cells; test: FACS, expi cPVRIG over expi parental cells, 3.3ug/ml
[2] = biological target: T2, human PVRIG on cells; test: FACS, human PBMC, CD8+ T cells, 10ug/ml
[3] = biological target: T2, human PVRIG on cells; test: FACS, human PBMC, CD56 int. NK cells, 10ug/ml
[4] = biological target: T3, PVRIG (FACS-based competition assay of …); test: FACS-based competition assay of PVRIG blocking; format and competitor not given
[5] = biological target: T3, PVRIG (FACS-based competition assay of …); test: as above; remark: listed apart in the source
[6] = biological target: T2, human PVRIG on cells; test: FACS, human PBMC, CD8+ T cells, 10ug/ml; remark: listed apart in the source
[7] = biological target: T2, human PVRIG on cells; test: FACS, HEK hPVRIG over HEK parental cells, 3.3ug/ml
[8] = biological target: T2, human PVRIG on cells; test: FACS, HEK hPVRIG cells (HEK OE)
[9] = biological target: T2, human PVRIG on cells; test: FACS, human PBMC, CD56 int. NK cells, 10ug/ml; remark: listed apart in the source
[10] = biological target: T1, cynomolgus PVRIG on cells; test: FACS, expi cPVRIG over expi parental cells, 3.3ug/ml; remark: listed apart in the source
[11] = biological target: T2, human PVRIG on cells; test: FACS, Jurkat cells, relative to control, 3.3ug/ml
[12] = biological target: T1, cynomolgus PVRIG on cells; test: FACS, expi cPVRIG over expi parental cells, 3.3ug/ml; remark: listed apart in the source
[13] = biological target: T2, human PVRIG on cells; test: FACS, human PBMC, CD8+ T cells, 10ug/ml; remark: listed apart in the source
[14] = biological target: T2, human PVRIG on cells; test: FACS, human PBMC, CD56 int. NK cells, 10ug/ml; remark: listed apart in the source
[15] = biological target: T4, human TIGIT on cells; test: flow cytometry of fab; MFI on human TIGIT over-expressing Expi293 / MFI on parental Expi293

Binder	gMFIr Expi cyno OE/par [1]	gMFIr Human CD8+ T cells [2]	gMFIr Human CD56 int. NK [3]	IC50 [4] [nM]	IC50 [5] [nM]	gMFIr Human CD8+ T cells [6]	gMFIr HEK OE/par [7]	EC50 [8] [nM]	gMFIr Human CD56 int. NK [9]	gMFIr Expi cyno OE/par [10]	gMFIr Jurkat [11]	gMFIr Expi cyno OE/par [12]	gMFIr Human CD8+ T cells [13]	gMFIr Human CD56 int. NK [14]	MFIr (OE/Par) hTIGIT [15]
B1	60.5	1.41	1.97	39.9	39.9	1.41	72	40.2	1.97	60.5	6.21	–	–	–	–
B2	41.5	4.09	3.6	37.9	37.9	4.09	45.9	3.3	3.6	41.5	6.5	–	–	–	–
B3	–	–	–	58.9	58.9	1.71	47.3	2.99	2.08	0.79	3.98	0.79	1.71	2.08	–
B4	–	–	–	181	181	1.96	43.7	1.87	2.6	46.3	5.05	46.3	1.96	2.6	–
B5	–	–	–	821	821	1.28	40.4	3.67	2.24	0.82	2.79	0.82	1.28	2.24	–
B6	0.77	–	–	31.6	31.6	–	0.76	–	–	0.77	–	–	–	–	–
B7	106	1.96	3.15	–	–	1.96	261	1.05	3.15	106	23.6	–	–	–	–
B8	–	–	–	–	–	–	–	–	–	–	–	–	–	–	16
B9	–	–	–	–	–	–	–	–	–	–	–	–	–	–	30
B10	–	–	–	–	–	–	–	–	–	–	–	–	–	–	11
